Assay results published in patent US10323078B2, “Isolated peptides and fragments thereof from fibrinogen for use as drugs, particularly in skin inflammatory diseases” (Universite Paris Descartes, priority 2015, dated 2019).

B1: MKRMVSWSFHKLKTMKHLLLLLLCVFLVKSQGVNDNEEGFFSARGHRPLDKKREEAPSLRPAPPPISGGGYRARPAKAAATQKKVERKAPDAGGCLHADPDLGVLC (protein)
chain: MKRMVSWSFHKLKTMKHLLLLLLCVFLVKSQGVNDNEEGFFSARGHRPLDKKREEAPSLRPAPPPISGGGRARPAKAAATQKKVERKAPDAGGCLHADPDLGVLCMKRMVSWSFHKLKTMKHLLLLLLCVFLVKSQGVNDNEEGFFSARGHRPLDKKREEAPSLRPAPPPISGGGYRARPAKAAATQKKVERKAPDAGGCLHADPDLGVLC
modifications: GST fusion; fragment Fg1
notes: fragment of Bß chain of human fibrinogen having 106 amino acids; recombinant GST-fused peptide expressed in E. coli

How the values were obtained:
P. acnes 6919 strain = assay: Adhesion assay, biotinylated P. acnes binding to HaCaT keratinocytes; assay type: cell-based, Propionibacterium acnes; details: P. acnes 6919 pre-treated with whole fibrinogen 0.01 to 0.5 mM, 1 h at 37° C.
Description: FIG. 12: Dose-dependent inhibition of P. acnes binding to keratinocytes. Biotinylated P. acnes 6919 strain at concentrations adjusted to 0.1 of absorbance at 600 nm was pre-treated with whole human (dark gray bar) and bovine (light gray bar) fibrinogen at the concentrations ranging from 0.01 to 0.5 mM and incubated 1 h at 37° C. with the human HaCaT keratinocyte cell line. After removal of unbound bacteria, adhesion activity was detected at 410 nm. Data are means±S.D. of three separate experiments. Statistical significance is indicated by * (P<0.05), ** (P<0.01), *** (P<0.001), and **** (P<0.0001), respectively.
(§1) The bacterial suspension was adjusted at 600 nm to the desired concentration, pretreated with peptides Fg1 and Fg2 at the final concentration ranging from 0.87 to 7 μM for 1 h at 37° C. and deposited on the previously saturated cells with a solution of PBS SVF 2% for 2 h. After incubation for 1 h at 37° C., unbound bacteria are removed by 3 washes with PBS and fixed bacteria are detected by a streptavidin-peroxidase solution of 0.5 μg/ml for 30 min.
Whole P. acnes bacteria are labelled by biotinylation, pre-treated or not with the peptides and contacted with the various cell lines. After removal of the unfixed bacteria, the adhesion activity was measured spectrophotometrically by using the streptavidin-peroxidase conjugate and a chromogenic substrate. […]

P. acnes RON strain = assay: Adhesion assay, biotinylated P. acnes binding to keratinocytes (NHDK); assay type: cell-based, Propionibacterium acnes; details: bacteria pretreated 0.87 to 7 μM, 1 h at 37° C.
Description: as §1
Whole P. acnes bacteria are labelled by biotinylation, pre-treated or not with the peptides and contacted with the various cell lines. After removal of the unfixed bacteria, the adhesion activity was measured spectrophotometrically by using the streptavidin-peroxidase conjugate and a chromogenic substrate.
The ability of P. acnes strains 6919, RON and PIE was tested at 3 concentrations to adhere to various cells lines. It has been shown that the strains of P. acnes tested bound to the three kind of cell lines tested (keratinocytes, monocytes and fibroblast) with a maximum adhesion strength found for keratinocytes (FIG. 11). Knowing that P. acnes is able to recognize fibrinogen, it was used human and bovine whole fibrinogen to compete the interaction between the bacteria and the target cell. […] Then, the ability Fg1 to inhibit the adhesion of bacteria and RON PIE was evaluated on the 3 main types cell. […]

MRC5 cells = assay: H2O2 production by P. acnes-stimulated MRC5; assay type: cell-based, human; details: bacteria first pretreated, 0.87 to 7 μM
ThP1 cells = assay: IL-1β production by P. acnes-stimulated ThP1 (ELISA); assay type: cell-based, human; details: for Inhibition of Interleukine 1 beta (IL-1β) production: ThP1, 0.87 to 7 μM
Description: (§2) For experiences of stimulation with P. acnes, cells were incubated with the P. acnes suspension adjusted at the appropriate concentration, pre-treated for 1 h at 37° C. or not with fibrinogen recombinant peptides Fg1 and Fg2 at the concentrations 0.87, 1.75, 3.5 or 7 μM for the desired period of time at 37° C. in 5% CO2.
(§3) Human IL-1ß, IL-8, IL-12, hBD-2, and TNF-α protein concentration was measured in the supernatants of stimulated cells using various ELISA Set kits (Ready-Set-Go kit from eBioscience for acne experiments, and for psoriasis experiments the Duo set IL-8 kit from R&D Systems and the BD-2 Human Development (hBD-2) from Peprotech) according to the manufacturer's instructions. We used serial dilutions of recombinant human IL-1ß, IL-8, IL-12 and TNF-α for standard curve. The optical density was determined at 450 nm at a wavelength correction of 540 nm.
(§4) To assess the efficacy of Fg1 recombinant peptide, the production of O2^∘− and H2O2 by HaCaT cells NHDK, THP-1, MRC5 and HDF stimulated by pretreated P. acnes strains 6919, RON and PIE was measured. The amount of ROS produced was compared to that produced by the stimulated cells with untreated bacteria. Production baseline was obtained by measuring ROS on unstimulated cells. The production of IL-1ß, IL-8, IL-12 and TNF-α was also measured in all conditions cited above. The measurement of the production of ROS is performed by spectrofluorimetry in the presence of specific fluorochromes directly on the monolayer cell. Measurement of cytokine production was performed in parallel on the cell culture supernatant.
(§5) Two sets of experiments were implemented: 1) The cells were stimulated (18 h at 37° C.) by P. acnes strains previously pretreated with Fg1 and Fg2 peptides at the final concentrations ranging from 0.87 to 7 μM for 1 h at 37° C.; and 2) The cells were pretreated first with Fg1 and Fg2 peptides at the final concentrations ranging from 0.87 to 7 μM for 24 h at 37° C. and stimulated (18 h at 37° C.) by P. acnes strains.

NHDK cells = assay: IL-8 production by P. acnes-stimulated NHDK (ELISA); assay type: cell-based, human; details: 0.87 to 7 μM
Description: as §2, §3, §4, §5

[1] = P. acnes 6919, set I, bacteria first pretreated
[2] = P. acnes 6919, set II, cells first pretreated
[3] = P. acnes PIE, set I, bacteria first pretreated
[4] = P. acnes PIE, set II, cells first pretreated
[5] = P. acnes RON, set I, bacteria first pretreated
[6] = P. acnes RON, set II, cells first pretreated

| Molecule | Inhibition of adhesion of P. acnes to keratinocytes (P. acnes 6919 strain) | Inhibition of adhesion of P. acnes RON strain (P. acnes RON strain) | Inhibition of Hydrogen peroxide (H2O2) production (MRC5 cells; P. acnes 6919, set I) | Inhibition of Hydrogen peroxide (H2O2) production (MRC5 cells; P. acnes PIE, set I) | Inhibition of Hydrogen peroxide (H2O2) production (MRC5 cells; P. acnes RON, set I) | Inhibition of Interleukine 1 beta (IL-1β) production (ThP1 cells; [1]) | Inhibition of Interleukine 1 beta (IL-1β) production (ThP1 cells; [2]) | Inhibition of Interleukine 1 beta (IL-1β) production (ThP1 cells; [3]) | Inhibition of Interleukine 1 beta (IL-1β) production (ThP1 cells; [4]) | Inhibition of Interleukine 1 beta (IL-1β) production (ThP1 cells; [5]) | Inhibition of Interleukine 1 beta (IL-1β) production (ThP1 cells; [6]) | Effect on the production of IL-1ß (ThP1 cells; whatever the strain of P. acnes used, production effective only for monocytes) | Inhibition of Interleukine 8 (IL-8) production (NHDK cells; [1]) | Inhibition of Interleukine 8 (IL-8) production (NHDK cells; [2]) | Inhibition of Interleukine 8 (IL-8) production (NHDK cells; [3]) | Inhibition of Interleukine 8 (IL-8) production (NHDK cells; [4]) | Inhibition of Interleukine 8 (IL-8) production (NHDK cells; [5]) | Inhibition of Interleukine 8 (IL-8) production (NHDK cells; [6]) |
| --- | --- | --- | --- | --- | --- | --- | --- | --- | --- | --- | --- | --- | --- | --- | --- | --- | --- | --- |
| human fibrinogen: purified commercial human fibrinogen (Sigma), glycoprotein hexamer of Aα, Bß and γ chains | able to inhibit the adhesion | – | – | – | – | – | – | – | – | – | – | – | – | – | – | – | – | – |
| B1 | – | inhibits the adhesion of RON strain in a dose-dependent manner | pos | pos | pos | NO (Inhibition NO: Fg1 has no effect on the production of inflammatory molecule) | NO (Inhibition NO: Fg1 has no effect on the production of inflammatory molecule) | NO (Inhibition NO: Fg1 has no effect on the production of inflammatory molecule) | NO (Inhibition NO: Fg1 has no effect on the production of inflammatory molecule) | NO (Inhibition NO: Fg1 has no effect on the production of inflammatory molecule) | NO (Inhibition NO: Fg1 has no effect on the production of inflammatory molecule) | no effect | pos | pos | pos | pos | pos | pos |
